# Measured values taken from the nanobody polyreactivity screen of Harvey et al. (2022).
# Test: yeast display, Sf9 membrane polyspecificity reagent, FACS + sequencing; frameworks hold sequencing errors
# Method in brief: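 In a synthetic yeast display library (Saccharomyces cerevisiae BJ5465), nanobody expression was induced with galactose for 36–48 hours. FACS gates were set low and high (top ~1%) using anti-HA fluorescence for expression and streptavidin fluorescence for binding of the Sf9 membrane reagent. Each polyreactivity label is drawn from the gate of origin.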
row,Sequence,polyreactivity (PSR sort gate)
1,QVQLVESGGGIVQAGGSLRLSCAASGSTFKSYAMGWYRQAPGKERELVAAITHRGSTYYADSVKGSFTISRDNAKNTVYLQMKSLKPEDTAVYYCNVRRICNGRRVDYWGQGTQVTVSS,high polyreactivity
2,HVQLVESGGGLVQAGGSLRLSCAASGFTFDYNTMGWSRQAPGKEREVVAGISRGGGSTYYADSVKGRFTISRDNAKNTVYLQMNSLKPEDTAVYYCNTVLKRQRKNEYWGQGTQVTVSS,high polyreactivity
3,QVQLVESGVCIVEAGGSLRLSCAASGRSLKVYAMGWYRQAPGKERELVAAISQRGGSTYYADSVKGRFTISRDNAKNSVYLQMNSRKPEDTAVYYCAARYPYQSYLYRFDYWGQGTQVTVSS,high polyreactivity
4,QVRLVESGGGLFQAGGSLRISCAASGRIFNTYAMGWYRQAPGKERELVAAIRWSSGSTFYADSVKGRFTISRDYAKNTVYLQMNSLKPEDTAVYYCAADNWAVNAYYGYIYDYWGQGTQVTVSS,low polyreactivity
5,QVQLVESGGGLVQAGGSLRLSCAASGSTFYHYAMGWYRQAPGKERELVASISHSGGRTFYADSVKGRFTISRDNAKNTVYLQMNSLKPEDTAVYYCAADWRTLTEYGYKGYYWGLGTQVTVSS,low polyreactivity
6,QVQLVESGGGLVQAGGSLRIISAASGSTFTRYTMGWYRQAPGKEMEFVAAISFSGGSTYYADSVKGRFTIARDNAKNTVYLEMNSLKPEDTAVYYCAASAHCYRPARDYWGQGTQVTVSS,low polyreactivity
7,QVQLVESGGGLVQAGGSLRLSCAASGRSFYYNAMGWYRQAPGKERELVAAIRSSGGTTYYADSVKGRFTISRDNAKNTVYLQMNSLKPEDTAVYYCAKDSNRYSYYSPYDSWGQGTQVTVSS,low polyreactivity
8,QVQLVESGGGLVQAGGSLRLSCAASGFIFAWNAMGWYRLAPGKERELVAAITSAGSTKYADSVKGRFTISRDNAKNTVYLQMNSLKPEDTAVYYCAAARFRIYCGQGTQVTVSS,high polyreactivity
9,QVQLVESGGGLVQAGGSLRLSCAASGFTFGYYAMGCYRQAPGKERELVAAISWSGGSTYYADSVKGRFTISRDNAKNTVYLQMNSLKPEDSAVYYCAAQSYLGRTWLDYWGQGTQVTVSS,high polyreactivity
10,QVQLVESGGGLVQAGGSLRLSCASSGRTFLINAMGWYRQAPWKERELVATISRSGGSTYYADSVKGRFTISRDNAKITVYLQMNSLKPEDTAVYYCAALVRIGYYYWGQGTQVTVSS,high polyreactivity
11,QVQRVESGGGLVQAGGSLRLSCAASRSIVNIYAMGWDRPAPGKERELVATITGIADSTYYADSVKGRFTISRDNAKNTVYLQMNSLKPEDTAVYYCAIYVSWPLYYYWGHGTQVTVSS,low polyreactivity
12,QVQLVESGGGLVQAGGSLRFSCAASGRTSRYYAMRWYRQAPGKERELVAGISTGGSTYYADSVKGRFTISRDNAKNTVYLQMKSLKPEDTAVYYCAAKYTRTNYYYWYYRMDFWGQGTQVTVSS,low polyreactivity
13,QVQLVESGGGLVQAGGSLRLRCAASGLTFVRYTMGWYRPAPGKERELVAAITYSDASTYYADSVKGRFTISRDNAKNTVYLQKNSLKPEDTAVYYCAAVYFGGPRSNSPYSRYGYWGQGTQVTVSS,low polyreactivity
14,QVQLVESGGGLVQAGGSLRLSCAASGSTQYKYAMGWNRQAPGKERELVAAISWSGSSTYYADSVKGRFTISRDNAKNTVYLQLNSLKREDTAVYYCAAYPRPYIGYTDGYVWYEFDYWGQGTQVTVSS,low polyreactivity
15,QVQLVESGGGLVQAGGSLRLSCAATGRIFGSNAMGWYRQAPGKEREVVAAITRGGSTNYADSVKGRFTISRDNAKNTVYLQMNSLKPEDTAVYYCAVRWYRKYNFWGQGTQVTVSS,high polyreactivity
16,QVQLVESGGGLVQAGGSLRLSCAASGFIFWKYAMGWYRQAPGKEREFVAAINWRGDRTYYADSVKGRFTISRDNAKNTVYLQMNSLKPEDTAVYYCAAVVGYYHRRFDYWGQGTQVTVSS,high polyreactivity
17,QVQLVESGGGLVQAGGSLRLSCAASGRIFRLYAMGWYRQAPGKERELVAAIRVSGNTYYADSVKGRFTISRDNAKNTVYLQMNSLKPEDTAVYYCAAKPYYFYGMDYWGQGTQVTVSS,high polyreactivity
18,QVQLVESGGGLVQAGGSLRLSCAASGSIFYLYTMGWNRQAPGKERELVAAITAISGSTYYADSVKGRFTISRDNAKNTVYLQINSLKPEDTAVYYCAAKYYRHRWQLYNYWGQGTQVTVSS,high polyreactivity
19,QVQLVESGGGLVQAGGSLRLSCAASGSIFTWYAMGWYRLAPGIDRELVAAITRGGSTYADSVTGRFTISRDNAKNTVYLQMNSLKPEDTAVYYCNAVYGVYDFNYWGQGTQVTVSS,low polyreactivity
20,QVQLVESGGGLVQAGGSLLLSCAASGITFYGNAKGWDRQAPGKERELVAAITFSGGITYYADSVKGRFTISRDNAKNTVYLQMNRLKPEDTAVYYCATDPIGGWTRPQRYGDDYWGQGTQLTVSS,low polyreactivity
21,QVQLVESGGGLVQAGGSLRLSCAASGSTFPDYAMGWYRQAPGKERELVAVITIRGGSTYYADSVKGRFTISRDNAKNTVYLQMNSLKPEDTAVYYCAATGQLQGWYDMYYWGQGTQVTVSS,low polyreactivity
22,QVQLVESGGGLVQAGGSLRLSCAASGYIFGHYTMGWYRQAPGKERELVAGISSGGITYYADSVKGRFTISRDNAKNSDYLQMNSLKPEDTAVYYCAAYWRRRLDYYYWGQGTQVTVSS,high polyreactivity

row,Sequence,polyreactivity (PSR sort gate)
1,QVQLVDSGGGLVQAGGSLRLSCAASGRTISGYAMGWYRQAPGKERELVAAITSRGGRTYYADSVKGRFTISRDNAKNTVYLQMNSLKPEDTAVYYCAAYRRLTLYDYWGQGTQVTVSS,high polyreactivity
2,QVQLVESGGGLVQAGGSLRLSCAASGFTFVNYARGWYRQAPGKERELVAAIRRSGSRTYYADSVKGRFTISRDNAKNTVYLQMHSLKPEDTAVYYCAAVWYRLYGYWGQGTQVTVSS,low polyreactivity
3,QVQLVETGGGLFHAGGSLRLSCAASGRIFVGYAMGWYIQAPGKERELVAAINSGGRTNYADSVKGRFTISRYNAKNNVYLQMNSLKPEDTAVYYCAATLRPYSSFPNRYGYWGQGTQVTVSS,low polyreactivity
4,QVQLVESGGGLVHAGGSLRLSCAASGTISAYAMGWYRPAPGKERELVAAISYSGGSTYYADSVKGRFTISRDNAKKTVYLQMNSLKPEDTAVYYCNARARWYYPYKTYYYWGQGTQVTVSS,high polyreactivity
5,QVQLVESGGGLVQAGGSLRLSSAASGRTFTTYAMGWYRQAHGKERELVAAISGSGGSTYYADSVKGRFTISRDNAKNTVYLQMNSLKPEDTAVYYCATAYYYHGGYYYPYDDYWGQGTQVTVSS,low polyreactivity
6,QVQLVESAGGLVQAGGSLRLSCAASGNMLIGKVMGMYRQAPGKERELVAAITSGGDTYYADSVKGRYTISRDNAKNTVYLQMNSLKPEDTAVYYCAADRPGQPKYEYWGQCTQVTVSS,low polyreactivity
7,QVQLVESGGGLVQAGGSLRLSCAASGSIFDRYAMGWYRQAPGKERELVAAISTDGTRTYYADSVKGRFTISRDNAKNTVYLQMNSLKPEDTAVYYGAKYWRSNYYYWGQGTQVTVSS,high polyreactivity
8,QVQLVESGGGLVQAGGSLRLSCAASGRIFSYYAMGWYRQAPGKERELVATINSGGSTNYADSVKRRFTISRDNAKNTVYLQMNSLKPEDTAVYYCAASPVWWSDYWGQGTQVTVSS,low polyreactivity
9,QVQLVESGGGLVQAGGSLRLSCAASGSTFYRYAMGWYRQAPGKERELVARIRLSGTSTYYADSVKGRFTISRDNAKNTVYLQMNSLKPEDTAVYYCAAELYSRNWRSQYDYWGQGTQVTVSS,high polyreactivity
10,QVQLVESGGGLVQAGGSLRLSCAASGRTFSRNAMGRYRQAPGKERELVATITSDGSTNYADSVKGRFTISRDNAKNTVYLQMNSLKPEDTAVYYCAAGEQSSIIGAHDYWGQGTQVTVSS,low polyreactivity
11,QVQLVESGGGLVQAGGSLRLSCAASGRIFGLYTIGWYRQAPGKDREFVAGITYSAGRTYYADSVKGRFPISRDNAKNTVYLQMNSLKPEDTAVYYCAARIYSKFTSYGILDSWGQGTQVTVSS,high polyreactivity
12,QVQLVESGGGLVQAGGSLRLSCAASGSIFQEYAMGWYRQAPGKERELVAAIDDSDGSTYADSVKGRFTISRDNAKTTVYLQMNSLKPDDTAVYYCNADIHATYDYWGQGTQVTVSS,low polyreactivity
13,QVQLVESGGGLVQAGGSLRLSCAASGRTFRPYPMGWYRQAPGKERELVAAITRSGGSTYYADSVKGRFTISRDNAKNTVYLQMNSLKPEDTAVYYCAAYNTYSDTYDYWGQGTQVTVSS,low polyreactivity
14,QVQLVESGVGIVQAGGSLRLSCAASGITFWRYAMRWYRQARGKERELVAAINSGGGTKYADSVQGRFTISRDNAKNTDYLQMNSLKPEDTAVYYCAAVSRYGWYDYCGQGTQVTVSS,high polyreactivity
15,QVQLVESGGGLVQAGGSLRLSCAASGNIFSLNGMGWYRQAPGKEREFVAAITWSVGSTSSADSVKGRFTISRDNAKNTVYLQMNSLKPEDTAVYYGAATVSDLYKHEYYYWGQGTQVTVSS,low polyreactivity
16,QVQLVESGGGLVQAGGSLRLSCAASGRTFYYYAMGWYRQAPGKERELVAAITSNGGSTYYADSVKGRFTISRDNAKNTVYLPMNSLKPEDTAVYYCAADTYWYLSPYDYWGQGTQVTVSS,low polyreactivity
17,QVQLVESGGGLVQAGGSLRLSCAASGIIFNTYAMGWYRPAPGKERELVAGIDYSGGGTSYADSVKGRFTISRDNAKNTVYLQMNSLKPEDTAVYYCAADAYSGAYFTYLGEIYDYWGQGTQVTVSS,low polyreactivity
18,QVQLGESGGGLVQAGGSLRLSCAASGIIYKYAMGWYRQAPGQERELVATITWSDCSTYYADSVKGRFTISRDNAKNTVSLQMNSLKPEDTAVYYCAADDYYGYDYWGQGTQVTVSS,low polyreactivity
19,QVQLVESGGGLVQAGGSLRLSCAASRFIFYYYALGWYRQAPGKERELVAAITWSGGSTYYADSVKGRFTISRDNAKNTVYLQMNSLKPEETAEYYCAVYSTEYKLLWGGISYDYWGQGTQVTVSS,low polyreactivity
20,QVQLVESGGGLVQAGGSLRLSCAASGFTIVPYAMGWYRQAPGKERELVAAITSGGSTYYADSVKGRFTISRDNAKNTVYLQMNSLKPEDTAVYYCNRGRYRRRYTYSQYDYWGQGTQVTVSS,high polyreactivity
21,QVQLVESGGGLVQAGGSLRLSCAASGITFKRYTMGWYRQAPGKERELVAANSRSGGSTYYADSVKGRFTISRDTAKNTVYLQMNSLKPEDTAVYYCAAAVGGYNVAYDYWGQGTQVTVSS,high polyreactivity
